Results published in US20120053121A1.

Target: EGF receptor (EGFR) on PC12 cells
Test: cell-based or functional assay

GMP-grade human mature HB-EGF produced in P. pastoris yeast (from UniProt Q99075 63-148) (ligand)
percentage of PC12 cells with neurite outgrowth after 3 days, HB-EGF treated: 87.8%
rate of neurite extension induced by HB-EGF in PC12 cells in the presence of AG1478 (EGF receptor kinase inhibitor): 24.3%
